According to PMC8117407 (Science (New York, N.Y.), 2020):

B1: mXFP-EpoR coexpressed with JAK2 V617F-mEGFP (complex)
chain 1: APPPNLPDPKFESKAALLAARGPEELLCFTERLEDLVCFWEEAASAGVGPGNYSFSYQLEDEPWKLCRLHQAPTARGAVRFWCSLPTADTSSFVPLELRVTAASGAPRYHRVIHINEVVLLDAPVGLVARLADESGHVVLRWLPPPETPMTSHIRYEVDVSAGNGAGSVQRVEILEGRTECVLSNLRGRTRYTFAVRARMAEPSFGGFWSAWSEPVSLLTPSDLDPLILTLSLILVVILVLLTVLALLSHRRALKQKIWPGIPSPESEFEGLFTTHKGNFQLWLYQNDGCLWWSPCTPFTEDPPASLEVLSERCWGTMQAVEPGTDDEGPLLEPVGSEHAQDTYLVLDKWLLPRNPPSEDLPGPGGSVDIVAMDEGSEASSCSSALASKPSPEGASAASFEYTILDPSSQLLRPWTLCPELPPTPPHLKYLYLVVSDSGISTDYSSGDSQGAQGGLSDGPYSNPYENSLIPAAEPLPPSYVACS
chain 2: MGMACLTMTEMEGTSTSSIYQNGDISGNANSMKQIDPVLQVYLYHSLGKSEADYLTFPSGEYVAEEICIAASKACGITPVYHNMFALMSETERIWYPPNHVFHIDESTRHNVLYRIRFYFPRWYCSGSNRAYRHGISRGAEAPLLDDFVMSYLFAQWRHDFVHGWIKVPVTHETQEECLGMAVLDMMRIAKENDQTPLAIYNSISYKTFLPKCIRAKIQDYHILTRKRIRYRFRRFIQQFSQCKATARNLKLKYLINLETLQSAFYTEKFEVKEPGSGPSGEEIFATIIITGNGGIQWSRGKHKESETLTEQDLQLYCDFPNIIDVSIKQANQEGSNESRVVTIHKQDGKNLEIELSSLREALSFVSLIDGYYRLTADAHHYLCKEVAPPAVLENIQSNCHGPISMDFAISKLKKAGNQTGLYVLRCSPKDFNKYFLTFAVERENVIEYKHCLITKNENEEYNLSGTKKNFSSLKDLLNCYQMETVRSDNIIFQFTKCCPPKPKDKSNLLVFRTNGVSDVPTSPTLQRPTHMNQMVFHKIRNEDLIFNESLGQGTFTKIFKGVRREVGDYGQLHETEVLLKVLDKAHRNYSESFFEAASMMSKLSHKHLVLNYGVCFCGDENILVQEFVKFGSLDTYLKKNKNCINILWKLEVAKQLAWAMHFLEENTLIHGNVCAKNILLIREEDRKTGNPPFIKLSDPGISITVLPKDILQERIPWVPPECIENPKNLNLATDKWSFGTTLWEICSGGDKPLSALDSQRKLQFYEDRHQLPAPKWAELANLINNCMDYEPDFRPSFRAIIRDLNSLFTPDYELLTENDMLPNMRIGALGFSGAFEDRDPTQFEERHLKFLQQLGKGNFGSVEMCRYDPLQDNTGEVVAVKKLQHSTEEHLRDFEREIEILKSLQHDNIVKYKGVCYSAGRRNLKLIMEYLPYGSLRDYLQKHKERIDHIKLLQYTSQICKGMEYLGTKRYIHRDLATRNILVENENRVKIGDFGLTKVLPQDKEYYKVKEPGESPIFWYAPESLTESKFSVASDVWSFGVVLYELFTYIEKSKSPPAEFMRMIGNDKQGQMIVFHLIELLKNNGRLPRPDGCPDEIYMIMTECWNNNVNQRPSFRDLALRVDQIRDNMAG
B2: mXFP-GHR coexpressed with JAK2 V617F-mEGFP (complex)
chain 1: FSGSEATAAILSRAPWSLQSVNPGLKTNSSKEPKFTKCRSPERETFSCHWTDEVHHGTKNLGPIQLFYTRRNTQEWTQEWKECPDYVSAGENSCYFNSSFTSIWIPYCIKLTSNGGTVDEKCFSVDEIVQPDPPIALNWTLLNVSLTGIHADIQVRWEAPRNADIQKGWMVLEYELQYKEVNETKWKMMDPILTTSVPVYSLKVDKEYEVRVRSKQRNSGNYGEFSEVLYVTLPQMSQFTCEEDFYFPWLLIIIFGIFGLTVMLFVFLFSKQQRIKMLILPPVPVPKIKGIDPDLLKEGKLEEVNTILAIHDSYKPEFHSDDSWVEFIELDIDEPDEKTEESDTDRLLSSDHEKSHSNLGVKDGDSGRTSCCEPDILETDFNANDIHEGTSEVAQPQRLKGEADLLCLDQKNQNNSPYHDACPATQQPSVIQAEKNKPQPLPTEGAESTHQAAHIQLSNPSSLSNIDFYAQVSDITPAGSVVLSPGQKNKAGMSQCDMHPEMVSLCQENFLMDNAYFCEADAKKCIPVAPHIKVESHIQPSLNQEDIYITTESLTTAAGRPGTGEHVPGSEMPVPDYTSIHIVQSPQGLILNATALPLPDKEFLSSCGYVSTDQLNKIMP
chain 2: MGMACLTMTEMEGTSTSSIYQNGDISGNANSMKQIDPVLQVYLYHSLGKSEADYLTFPSGEYVAEEICIAASKACGITPVYHNMFALMSETERIWYPPNHVFHIDESTRHNVLYRIRFYFPRWYCSGSNRAYRHGISRGAEAPLLDDFVMSYLFAQWRHDFVHGWIKVPVTHETQEECLGMAVLDMMRIAKENDQTPLAIYNSISYKTFLPKCIRAKIQDYHILTRKRIRYRFRRFIQQFSQCKATARNLKLKYLINLETLQSAFYTEKFEVKEPGSGPSGEEIFATIIITGNGGIQWSRGKHKESETLTEQDLQLYCDFPNIIDVSIKQANQEGSNESRVVTIHKQDGKNLEIELSSLREALSFVSLIDGYYRLTADAHHYLCKEVAPPAVLENIQSNCHGPISMDFAISKLKKAGNQTGLYVLRCSPKDFNKYFLTFAVERENVIEYKHCLITKNENEEYNLSGTKKNFSSLKDLLNCYQMETVRSDNIIFQFTKCCPPKPKDKSNLLVFRTNGVSDVPTSPTLQRPTHMNQMVFHKIRNEDLIFNESLGQGTFTKIFKGVRREVGDYGQLHETEVLLKVLDKAHRNYSESFFEAASMMSKLSHKHLVLNYGVCFCGDENILVQEFVKFGSLDTYLKKNKNCINILWKLEVAKQLAWAMHFLEENTLIHGNVCAKNILLIREEDRKTGNPPFIKLSDPGISITVLPKDILQERIPWVPPECIENPKNLNLATDKWSFGTTLWEICSGGDKPLSALDSQRKLQFYEDRHQLPAPKWAELANLINNCMDYEPDFRPSFRAIIRDLNSLFTPDYELLTENDMLPNMRIGALGFSGAFEDRDPTQFEERHLKFLQQLGKGNFGSVEMCRYDPLQDNTGEVVAVKKLQHSTEEHLRDFEREIEILKSLQHDNIVKYKGVCYSAGRRNLKLIMEYLPYGSLRDYLQKHKERIDHIKLLQYTSQICKGMEYLGTKRYIHRDLATRNILVENENRVKIGDFGLTKVLPQDKEYYKVKEPGESPIFWYAPESLTESKFSVASDVWSFGVVLYELFTYIEKSKSPPAEFMRMIGNDKQGQMIVFHLIELLKNNGRLPRPDGCPDEIYMIMTECWNNNVNQRPSFRDLALRVDQIRDNMAG

Target: the molecule itself
Test: dual-colour single-molecule co-tracking

Row | Protein | ligand-independent dimerization relative to ligand-induced dimerization
1 | B1 | ~25%
2 | B2 | ~10%
